Key:
[1] = molecular target: T1, MUC1 (surface cell bound, tumor associated MUC1) (human, UniProt P15941 24-1255, tumor-associated O-glycosylation); test: FACS on T47D cells, antibody at 31.6228 µg/ml
T1 construct: whole, on cells; Endogenous MUC1 on tumor cell lines; also called CD227; CA-15-3
Protocol: (§1) From these antibody solutions further dilution by a factor of 3.162 were made (in a PP microtiter plate), so following antibody concentrations were used for FACS (μg/mL): 100, 31.62 10; 3.16; 1; 0.316; 0.1, 0.0316, 0.01, 0.003162
(§2) bound anti-MUC1 antibodies were detected by: goat anti-human IgG (H+L) Alexa488 conj. 1:200=10 μg/mL final (Invitrogen resp. Molecular probes Cat.No. A-11013) in 100 μL FACS buffer in total: 38.5 μL (stock: 2 mg/mL) were given to 7661.5 μL FACS buffer
(§3) The measurement was performed on a Beckman Coulter Cytomics FC500. Gates were set by analyzing a mock-control of each cell line w/o any antibody incubation. Specific protocol files (.pro) were saved.

[2] = molecular target: T1, MUC1 (surface cell bound, tumor …); test: FACS on T47D cells, antibody at 3.1623 µg/ml
Protocol: as §1, §2, §3

[3] = molecular target: T1, MUC1 (surface cell bound, tumor …); test: FACS on T47D cells, antibody at 0.0100 µg/ml
Protocol: as §1, §2, §3

[4] = molecular target: T1, MUC1 (surface cell bound, tumor …); test: FACS on T47D cells, antibody at 0.3162 µg/ml
Protocol: as §1, §2, §3

[5] = molecular target: T1, MUC1 (surface cell bound, tumor …); test: FACS on T47D cells, antibody at 1.0000 µg/ml
Protocol: as §1, §2, §3

[6] = molecular target: T1, MUC1 (surface cell bound, tumor …); test: FACS on T47D cells, antibody at 0.0032 µg/ml
Protocol: as §1, §2, §3

[7] = molecular target: T1, MUC1 (surface cell bound, tumor …); test: FACS on T47D cells, antibody at 10.0000 µg/ml
Protocol: as §1, §2, §3

[8] = molecular target: T1, MUC1 (surface cell bound, tumor …); test: FACS on T47D cells, antibody at 100.0000 µg/ml
Protocol: as §1, §2, §3

[9] = molecular target: T1, MUC1 (surface cell bound, tumor …); test: FACS on T47D cells, antibody at 0.0316 µg/ml
Protocol: as §1, §2, §3

[10] = molecular target: T1, MUC1 (surface cell bound, tumor …); test: FACS on T47D cells, antibody at 0.1000 µg/ml
Protocol: as §1, §2, §3

T1 sequence (P15941 24-1255): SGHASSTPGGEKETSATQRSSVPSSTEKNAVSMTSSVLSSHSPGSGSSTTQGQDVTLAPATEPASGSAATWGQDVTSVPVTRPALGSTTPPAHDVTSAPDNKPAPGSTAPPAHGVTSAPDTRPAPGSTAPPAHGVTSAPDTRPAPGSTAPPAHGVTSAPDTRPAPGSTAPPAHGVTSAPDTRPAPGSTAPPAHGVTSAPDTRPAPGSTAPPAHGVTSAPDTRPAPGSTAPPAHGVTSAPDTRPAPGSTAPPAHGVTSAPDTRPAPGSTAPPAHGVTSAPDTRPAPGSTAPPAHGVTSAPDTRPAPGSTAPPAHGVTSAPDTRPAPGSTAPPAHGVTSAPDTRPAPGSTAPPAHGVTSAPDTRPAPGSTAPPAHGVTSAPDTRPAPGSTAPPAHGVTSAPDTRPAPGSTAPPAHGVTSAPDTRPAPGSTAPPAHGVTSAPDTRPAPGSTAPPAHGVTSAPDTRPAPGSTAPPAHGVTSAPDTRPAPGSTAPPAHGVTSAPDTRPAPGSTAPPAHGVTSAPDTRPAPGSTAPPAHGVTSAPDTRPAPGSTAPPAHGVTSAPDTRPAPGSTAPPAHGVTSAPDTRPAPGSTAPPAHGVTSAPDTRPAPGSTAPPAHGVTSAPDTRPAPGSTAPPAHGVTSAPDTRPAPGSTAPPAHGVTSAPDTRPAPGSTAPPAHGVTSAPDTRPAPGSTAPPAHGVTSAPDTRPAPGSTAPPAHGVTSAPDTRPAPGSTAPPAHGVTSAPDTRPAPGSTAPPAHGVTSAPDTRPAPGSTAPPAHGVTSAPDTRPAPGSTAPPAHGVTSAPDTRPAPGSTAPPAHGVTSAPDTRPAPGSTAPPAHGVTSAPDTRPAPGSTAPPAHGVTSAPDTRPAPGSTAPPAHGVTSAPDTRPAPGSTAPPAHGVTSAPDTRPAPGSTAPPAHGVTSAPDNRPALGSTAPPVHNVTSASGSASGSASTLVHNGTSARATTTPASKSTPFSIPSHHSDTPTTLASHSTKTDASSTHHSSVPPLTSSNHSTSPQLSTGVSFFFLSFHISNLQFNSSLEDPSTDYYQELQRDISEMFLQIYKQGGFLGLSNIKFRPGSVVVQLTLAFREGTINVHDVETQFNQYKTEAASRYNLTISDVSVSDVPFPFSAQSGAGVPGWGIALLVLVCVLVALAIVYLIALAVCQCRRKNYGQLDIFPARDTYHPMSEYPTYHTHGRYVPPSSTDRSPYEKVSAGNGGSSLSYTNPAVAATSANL

Row | Binder | MFI [1] | MFI [2] | MFI [3] | MFI [4] | MFI [5] | MFI [6] | MFI [7] | MFI [8] | MFI [9] | MFI [10]
1 | R764-B7 (HT186-B7 IgG) (antibody, V domains shown, Human IgG1, lambda, produced in YB2/0 cells) VH: QMQLVQSGAEVKKPGASVKVSCKASGYTFTGHYMHWVRQAPGQGLEWMGWIDPVTGGTKYAQNFQGWVTMTRDTSIRTAYMELSRLRSDDTAMYYCAREVTGDRGQFDKWGQGTLVTVAS VL: QSVLTQPPSVSVAPGKTARITCGGNNIGSKSVHWYQQKPGQAPALVIYYGSYRPSGIPERFSGSNYGNTATLTIRRVEAGDEADYYCQVWDSSSDWVFGGGTKLTVLG | 9.16 | 4.96 | 1.11 | 1.44 | 2.26 | 0.738 | 6.56 | 12.6 | 1.04 | 0.728
2 | R764-G2 (HT186-G2 IgG) (antibody, V domains shown, Human IgG1, lambda, produced in YB2/0 cells) VH: RMQLVQSGAEVKKPGASVKLSCKASGYTFAGHYMHWVRQAPGRGLEWMGWIDPVTGGTKYAQNFQGWVTMTRDTSIRTAYMELSRLRSDDTAMYYCAREVTGDRGQFDKWGQGTLVTVAS VL: QSVLTQPPSVSVAPGKTARITCGGNNIGSKSVHWYQQKPGQAPVLVIYYGSDRSSGIPERFSGSNSGNTATLTISRVEAGDEADYYCQVWDSSSDWVFGGGTKLTVLG | 3.68 | 0.802 | 0.767 | 0.515 | 0.605 | 0.706 | 1.99 | 6.15 | 1.04 | 0.664
3 | R764-D11 (HT186-D11 IgG) (antibody, V domains shown, Human IgG1, lambda, produced in YB2/0 cells; also called R764 HT186-D11) VH: QMQLVQSEAELKKPGASVKVSCKASGYSFTGHYMHWVRQAPGQGLEWMGWIDPVTGGTKYAQNFQGWVTMTRDTSIRTAYLELSRLRSDDTAMYYCAREVTGDRGQFDKWGQGTLVTVAS VL: QSVLTQPPSVSVAPGKTARITCGGNNIGSKSVHWYQQKPGQAPALVIYYGSNRPSGIPERFSGSNSGNTATLTISRVEAGDEADYYCQVWDSSSDWVFGGGTKLTVLG | 13.2 | 7.92 | 1.09 | 1.96 | 4.72 | 1.17 | 11.1 | 17.4 | 1.13 | 1.45

Reference: patent US20110318757A1 (MAB FACTORY, published 2011)
